Assay: label from the status in PepcDB records

Sequence	protein production
MATQLVKGNTAVIIGAMYAGCDCYFGYPITPASEILHEASKYFPMVGRKFVQAESEEAAINMVYGAASTGKRVLCATSGPGMSLKQEGISFLAGSELPCVLVNVQRAGPGLGNIGPEQADYNQAVKGGGHGNYKNIVLAPNSVQEMCDCTAKAFELATKYKNPVIVLSDGVLGQMVEPLKFPEQAIKPEIDESWAVRGTKETRKNLVTSIFLDFKQLEEFNYALQEKYEIIKENEQDFEGYQLDDAEIILVSYGISSRISKTAVDVARKEGIKAGLFRPKTLFPFPEKELNKLAEKKCTFISVEMSNGQMAEDIKLATCCKRPIELVNRLGGNLIEVDQILAKIKEIAGGN	failed
MATRNALRIVSRRFSSGKVLSEEERAAENVFIKKMEQEKLQKLARQGPGEQAAGSASEAKVAGATASASAESGPKVSEDKNRNYAVVAGVVAIVGSIGWYLKAGGKKQPEVQE	failed
MATSGFKHLVVVKFKEDTKVDEILKGLENLVSQIDTVKSFEWGEDKESHDMLRQGFTHAFSMTFENKDGYVAFTSHPLHVEFSAAFTAVIDKIVLLDFPVAAVKSSVVATP	not failed
MATSGTYVTEVPLKGSAKNHYKRWKSENQLFPDAIGHHIQGVTVHEGDWDSHGAIKSWNYTCDGKQEVFKEKRELDDQKMAVTFRGLDGHVMEQLKVYDVIFQFVPKSQEGCVCKVTMFWEKRYEDSPEPIKYMKFVTSLAADMDDHILKNQSKA	failed
MATTNYSMIFIGNLQVAVDRSSLYESSDYSSFVARECLNKDSAMKPYDIFIFEKDEHFSVEDHYTAGNSSNESNTRPSDIFLKKKLVGLNPSILQLNREKRKATLKFSGDNKDILQSTLSSSKNINLSGGLFVSREYENKYVKFGARMRCDLVNRMKDVTLAWHESVSSTSDKNVELSSVENHKIAPKADGPGNSSNESSSSPFDIFLKKKVMRLKPSFLELNREKKKAAKGFSGIVIRPGMVLLKNYLSINNQVMIVNKCRQLGLGEGGFYQPGFQDGGLLHLKMMCLGKNWDCQTRRYGEIRPIDGSVPPRIPVEFSQLVEKAIKESKSLVATNSNETKGGDEIPLLLPDICVVNFYTSTGKLGLHQDKGESKKSLRKGLPIVSFSIGDSAEFLYGDQKDVDKADTLILESGDVLIFGERSRNVFHGVRSIRKILPPRLFFRKQIFNQVV	failed
MAVFVALGAFLMTLAGGWTAQRVTDRRHLVLGLAGGLMLGVVGLDLLPEALEAAGDEVFGVPAALLLFVAGFLLAHLVERLLAARRAAHGADEHEHRSPEVGLTAAAAMVGHSAMDGVAIGAAFQVGGGMGAAVAMAVIAHDFADGFNTYTLTSLYGNARRRAVAMLVADAIAPVLGASSTLLFTIPEGALGAYLGLFGGVLLYLAAAEILPEAHHEHPARSTLLCTVAGAAFIWLVVGIAE	failed
MAVGKKDIECPPYAEGTPLSDADIKEKRVTYVEDHPDIRYSWTAGQAISKFLNGLKEGKILGVKCNKCGRVMVPPRMFCELCYKPIDGWVELKDTGTVETFSISYIDPDARPLPEPVIVAVISIDGASPHMGIMHILDEVKPEDVYIGMKVKAVWKSEEEREGAITDIKYWKPLEGLEHHHHHH	failed
MAVLYAGRPVQKCERSRLMFNIDQPDSAPDNEDHDGDVVMHGQGSFFGRRKGHKLRAHQADLIENLLPHLSLQIDSPAPEPLTTLFDPPVEHMRLEIGFGGGEHLIAEALAHPDTGFIGAEPYVNGMAKILARIEAENIRNIRLFAGDASELLAWVPAGSLARIDLIHPDPWPKRRHWKRRFVQDATVAAMARALTPHGEFRFVCDIDGYTAWTLAHLLRAPCFDWLAQRADDWRKPWPNYTMTRYGRKAEREGRRANYLRFERL	failed
MAVQLLENWLLKEQEKIQTKYRHLNHISVVEPNILFIGDSIVEYYPLQELFGTSKTIVNRGIRGYQTGLLLENLDAHLYGGAVDKIFLLIGTNDIGKDVPVNEALNNLEAIIQSVARDYPLTEIKLLSILPVNEREEYQQAVYIRSNEKIQNWNQAYQELASAYMQVEFVPVFDCLTDQAGQLKKEYTTDGLHLSIAGYQALSKSLKDYLY	not failed
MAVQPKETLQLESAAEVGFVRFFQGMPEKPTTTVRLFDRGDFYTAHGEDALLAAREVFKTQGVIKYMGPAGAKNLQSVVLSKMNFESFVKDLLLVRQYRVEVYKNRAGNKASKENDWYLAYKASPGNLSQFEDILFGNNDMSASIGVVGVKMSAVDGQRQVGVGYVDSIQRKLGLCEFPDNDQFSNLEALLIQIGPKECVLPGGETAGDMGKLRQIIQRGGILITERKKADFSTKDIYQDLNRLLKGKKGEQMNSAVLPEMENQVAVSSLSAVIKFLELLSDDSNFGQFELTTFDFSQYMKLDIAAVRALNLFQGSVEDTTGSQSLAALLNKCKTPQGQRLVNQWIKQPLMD	failed
MAVQRVQETQRHSSRVLVPQHAGQFHPVGLRHLSTGPGLHRRSVLRSARVLAKSSIDQPPGQHAQGAVMLRTPFSPRLEGWLLVALAVLLIGAGLGMRQPQNVDEERFLGVALEMLQNGSWFVPHRAAEIYADKPPLFMWTVAFFIWLTGSPNIALYLPGLLSAGTITAVLYDLGNRLWERRIGRYAALLFLATYQTYSILRTGQIDSFLCLWVALGFYGLVRHLLLGPAWGWFYFSCAAMGLGIISKGVGFVPALMLIPYAYAVRKNWHGVVRMPGQAARWALGLLVTLIACCLWLVPMVISVVRDGGPEGFAYLHEILLHQTANRYASAWDHREPFWYFLVNVIPQYWLPLVFALPWLIPAWRRQLSKQDGRVLVLLGWVLLVLLFFSLSSGKRKLYIFPALPGLVLVAAPLVPWLLRRWFRERVLARRIVPTIVVVWLALWFARGFIEPVVEGENPHKELMEQAAEVTHGADLVLVNWREGHWLYARQPMVHFGFAHALANERAASWLREHPGTFALVPGELLANCFLPEKAHPLGKTSRADWFLVDAQADNGVCRPERPPEVYRFAWKQNAQ	failed
MAVRQVTVGYSDGTHKTMPVRCDQTVLDAAEEHGVAIVNECQSGICGTCVATCTAGRYQMGRTEGLSDVERAARKILTCQTFVTSDCRIELQYPVDDNAALLVTGDGVVTAVELVSPSTAILRVDTSGMAGALRYRAGQFAQLQVPGTNVWRNYSYAHPADGRGECEFIIRLLPDGVMSNYLRDRAQPGDHIALRCSKGSFYLRPIVRPVILVAGGTGLSAILAMAQSLDADVAHPVYLLYGVERTEDLCKLDELTELRRRVGRLEVHVVVARPDPDWDGRTGLVTDLLDERMLASGDADVYLCGPVAMVDAARTWLDHNGFHRVGLYYEKFVASGAARRRTPARLDYAGVDIAEVCRRGRGTAVVIGGSIAGIAAAKMLSETFDRVIVLEKDGPHRRREGRPGAAQGWHLHHLLTAGQIELERIFPGIVDDMVREGAFKVDMAAQYRIRLGGTWKKPGTSDIEIVCAGRPLLEWCVRRRLDDEPRIDFRYESEVADLAFDRANNAIVGVAVDNGDADGGDGLQVVPAEFVVDASGKNTRVPEFLERLGVGAPEAEQDIINCFYSTMQHRVPPERRWQDKVMVICYAYRPFEDTYAAQYYTDSSRTILSTSLVAYNCYSPPRTAREFRAFADLMPSPVIGENIDGLEPASPIYNFRYPNMLRLRYEKKRNLPRALLAVGDAYTSADPVSGLGMSLALKEVREMQALLAKYGAGHRDLPRRYYRAIAKMADTAWFVIREQNLRFDWMKDVDKKRPFYFGVLTWYMDRVLELVHDDLDAYREFLAVVHLVKPPSALMRPRIASRVLGKWARTRLSGQKTLIARNYENHPIPAEPADQLVNA	failed
MAVVSHGGFRAAARALDVSQGGLTKSIAALEQEYGVDLIERSAKGVLLTPKGAAFVPLARAIVEEAERAEGWLRAQSGELSTSVSLGVSIEPSIRLAPAVLRDFRKALPDTSVHLTQGVALDLLGALRENRIELAVIRLPRNFDSSDLKVQRLYQSEPVIVGRAGHPGAGAASLRELVKYDWVVVGDTSRQGAMNDDSIWELFDREGLGRPRFAAVCNSLLSIVAMLMESDALARVPRALLDHSLARRNLIPIPVAEPPVPYWIATVHKASRRLSPEAQTLNAMLSSYARISGALSPERRPGEP	failed
MAWMFLLLAAAFEVTFAMGMKYAEGFTRPWPSLLTVVAAVGGIYFLTLAMRELPVSVAYPIWTAIGSLGTVLLGCLLLGESLTAVKLVSVGLIVAGVAGLK	failed
MAWRVGIAPLMTPSTPLWPGREPVYRSAALSSMEPGRPRGQQGTELGMPAGAPLRRGIGGGPGLDVRRRDLGAVAAAHQHAILGPAQVGDAHGEPDPDRGQRDGEGERGDVGEHAVAEIVRLGARLLVARQVERLGRAAHRLHGAVAPVDRRGGGGARPELEHPVLLIRAYGPLGFHGARITPKQRFLIAYVVNALQKIFSTRTCIALLHDLFAKARDSGRHAGVRMRGVALQNSHGTCRARSREHRLVISLCAPNAFCRRKAHGIIMEPGPPVATNNVRGSSTMTTNAREPRVHPVPILSLRPTQMTVGMREVKEKRKRWREHDSKKQADLLGKHMIPVVYGPDKRYYVIDHHHLGRALHDEGVKEVLVTVVGDLRMVEREAFWGVMDNKRWVYPYDSKGERRPFRDLPKSVADLRDDPFRSLAGELRRLGGFAKDTTPFSEFLWADYLRRKLSRKAVDANFDKALEKALSAAKSKDAIYLPGWCGPADDD	failed
MAWYEGAFFYQIFPDRFFRAGPPGRPAPAGPFEPWEAPPTLRGFKGGTLWGVAEKLPYLLDLGVEAIYLNPVFASTANHRYHTVDYFQVDPILGGNEALRHLLEVAHAHGVRVILDGVFNHTGRGFFAFQHLMENGEQSPYRDWYHVKGFPLKAYTAHPNYEAWWGNPELPKLKVETPAVREYLLAVAEHWIRFGVDGWRLDVPNEIPDPTFWREFRQRVKGANPEAYIVGEIWEEADFWLQGDMFDAVMNYPLARAVLGFVGGEALDRDLAAQTGLGRIEPLQALAFSHRLEDLFGRYRPEVVRAQMNLLTSHDTPRLLSLMRGSVERARLALALLFLLPGNPTVYYGEEVGMAGGKDPENRGGMVWEEARWQKDLRETVKRLARLRKEHPALRTAPYLRIYAQDGHLAFARGPYLAVVNASPHPFRQDFPLHGVFPRGGRAVDLLSGEVCTPQGGRLCGPVLPPFSLALWREA	not failed
MAYEERRSSILDSFSLSPLPYPVLLILAVASVFLLSSWYFSLEEAAESAEEQINFALLLIPLFLIVLVRWLSSMENPDALLGMFSSSRRTTYVSPGAGGDGGSSPWGVAALIVLLLVLLQYQSSFLEMWSG	failed
MAYLEVLRYLYHKRPMGKVKPGLERISMLLSKLGNPHLEYKTIHIGGTNGKGSVANMVSNILVSQGYRVGSYYSPHLSTFRERIRLNEEYISEEDVVKIYETMEPILNELDKEEIFSPSFFEVVTAMAFLYFAEKNVDIAVLEVGLGGRLDATNVVFPLCSTIVTVDRDHEKTLGYTIEQIAWEKSGIIKERVPLVTGERKREALKVMEDVARKKSSRMYVIDKDFSVKVKSLKLHENRFDYCGENTFEDLVLTMNGPHQIENAGVALKTLEATGLPLSEKAIREGLKNAKNLGRFEILEKNGKMYILDGAHNPHGAESLVRSLKLYFNGEPLSLVIGILDDKNREDILRKYTGIFERVIVTRVPSPRMKDMNSLVDMAKKFFKNVEVIEDPLEAIESTERATVVTGSLFLVGYVREFLTTGKINEEWKL	not failed
MAYREKDTKKWTAQWFETNVMGEKKKRRKRGFETKREALEFERSKKLSNERSMDMKLSDFIEIYFSDKQNDLKDRTIKNKRYMMQQHIVPYFGNQMMSEIKASQIIQWQNEIQKKGYSDSYLRMIQNQLTSLFTHAAKIYDLPVNPCKKVKRMGNSDSRSLNFWTLDEYKQFIQTMEPGTRYYLMFEMLFWTGCRIGELLAITKADINFEKNQLSINKTYYRTGMQDIITEPKTKQSFRTIEIPEFLKEEIKEFVDGHYGMPDTERLFPVVQEAVQHKMKRQIELAGVKKIRVHDIRHSHVAYLIEKGVEPLLIRDRLGHKDIRITLNTYGHLYPNQQRKIANLLDNENGNAVTGLGEERDEC	failed
MAYSLSPKKAGLPREVLKWLQSLDLSFFPKNVRRDFSNGYLVAEVFSWYFPRDFQMHSFDNGTSLAAKQSNWSQIEKFFVKQNISLVKEMIDGTIHCKPGAAELLVQEIYTILTNRSIQAIQRVEQGFTDKPYQDQLPMVARATASVSIKSNLSLTEVKAEPNIITNQRKVLAIIHRHLEQRKEERVQDPKRFNVKPTLGEQAVRLLAHQHEPNLQMNTSQAAC	failed
